Experimental data reported in the supplement of paper PMC11865577.

Columns and labels:
Experiment in all cases: pull-down binding Z-score (relative to library population); higher = stronger binding
[1] = test system: G-clamp-N3 (biotin conjugate); conditions: RNA library: Library-1 (pre-miRNA loops + repeats)
Outline: (§1)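 Binding is given as a Z-score against the library mean and standard deviation, calculated after removing the beads-only signal and averaging barcoded replicate probes without their highest and lowest values. Cy5- or Cy3-end-labelled RNA library (1 μg) was heat-folded in phosphate/NaCl/KCl buffer and incubated 60 min at 25 °C with streptavidin beads bearing 100 pmol of biotin-conjugated small molecule. After three washes, RNA eluted in hot SDS was hybridised to a DNA barcode microarray for 20 h at 55.5 °C.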

[2] = test system: TO-3-N3-2 (biotin conjugate); conditions: RNA library: Library-2
Outline: as §1

[3] = test system: TO-3-N3 (biotin conjugate); conditions: RNA library: Library-2
Outline: as §1

[4] = test system: TO-N3-2 (biotin conjugate); conditions: RNA library: Library-2
Outline: as §1

TO-N3 (biotin conjugate) = conditions: RNA library: Library-2
Outline: as §1

Sequence | pull-down binding Z-score [1] | pull-down binding Z-score [2] | pull-down binding Z-score [3] | pull-down binding Z-score [4] | pull-down binding Z-score (TO-N3 (biotin conjugate))
AUGAUAUAUUGUGAGAGCCAUGUCAU [hsa-mir-6718] | 0.0796 | -0.0702 | 0.0536 | -0.393 | -0.0603
AUGAUUUUUGGGGUCA [hsa-mir-4678] | 1.23 | -0.1 | -0.0616 | -0.328 | -0.0941
AUGCACCCAUAUUUUAAUAUCAAACUAUGACAAAUU [hsa-mir-3974] | -0.337 | -0.134 | -0.386 | -0.358 | -0.417
AUGCAUGGCUGGUGGCGGCGUGCAG [hsa-mir-6722] | 0.533 | 0.74 | 0.897 | 2.13 | 1.56
AUGCCCCAGGUGACGUGCUGGGCU [hsa-mir-4526] | -0.192 | 0.0558 | 0.205 | 0.888 | 0.495
AUGCCUGAGAAUAUAUGAAGGAGGCU [hsa-mir-204] | 2.31 | 0.374 | 0.0552 | 0.965 | 0.525
AUGCUAAGUCCAUGGGCAAACAU [hsa-mir-5704] | -0.176 | -0.165 | -0.258 | 0.235 | -0.088
AUGGAGAACGCCCCCACCAGUUCCCAC [hsa-mir-6767] | -0.992 | 0.564 | 1.67 | 0.67 | 1.68
AUGGAGGCUGCUUCUCCUCAGCAGCUGCCAUA [hsa-mir-3651] | 0.277 | -0.382 | -0.15 | 0.366 | -0.13
AUGGAUAUGGGAACUGUGAUGUCCA [hsa-mir-4768] | 1.17 | 0.0446 | -0.305 | 0.232 | -0.136
AUGGCAUUUAAGGAUUGCUAU [hsa-mir-4477a] | 0.671 | -0.473 | -0.716 | -0.675 | -0.893
AUGGGAGCCCAGAGACGUCCUAU [hsa-mir-8074] | 0.253 | -0.433 | -0.304 | 0.669 | 0.0134
AUGGGGCAGCUGGGAUGGUCCAAAAGGGUGGCCUCA [hsa-mir-1226] | 1.14 | 0.406 | 0.729 | 1.17 | 1.05
AUGGUCUCUAUAUUUAUGAUGAUUAA [hsa-mir-889] | -0.798 | 0.373 | 0.533 | 0.0111 | 0.577
AUGGUGUUUGUGAGUUGAUUGACAUCGU [hsa-mir-6506] | -0.212 | -0.457 | -0.398 | 0.0463 | -0.408
AUGGUUAAUGUUCCACAGCCA [hsa-mir-5190] | -0.723 | 0.157 | -0.134 | 0.372 | 0.0767
AUGGUUCCUAUUCUGAUCAAUAAACAUGGUUUGAGCCUAGUUACAAUGAUCUAAAAUUCACGGUCCAA [hsa-mir-548o] | -1.15 | -0.193 | -0.961 | -0.0344 | -0.587
AUGGUUUAGAGUUACACCCUGGGAGUUAACUGU [hsa-let-7c] | -0.228 | 0.565 | 0.351 | 0.0342 | 0.437
AUGUCCCUUUAGUUCAAAGU [hsa-mir-2052] | -2.06 | -0.0713 | -0.246 | -0.324 | -0.283
AUGUCUCAGGUCCCCAGCUGAGUCAA [hsa-mir-6513] | -1.3 | 0.129 | 0.633 | 0.47 | 0.609
AUGUCUGCUGGGGAACCGGGGCU [hsa-mir-4518] | 1.1 | 0.297 | 0.587 | 1.39 | 0.984
AUGUGAUGUCACUGAGGAAAUCACAC [hsa-mir-216b] | 0.862 | -0.272 | -0.223 | -0.00778 | -0.124
AUGUGAUGUGAGCAGAUGGUUCUCACU [hsa-mir-6758] | -0.46 | -0.346 | -0.532 | 0.176 | -0.621
AUGUGAUUGCUGUCCCAAACUCAUGU [hsa-mir-135b] | -0.794 | 0.00564 | -0.305 | -0.0979 | -0.126
AUGUGUUGUGAUGGCACAGCGU [hsa-mir-592] | -0.64 | -0.582 | -0.831 | 0.256 | -0.817

Sequence | pull-down binding Z-score [1] | pull-down binding Z-score [2] | pull-down binding Z-score [3] | pull-down binding Z-score [4] | pull-down binding Z-score (TO-N3 (biotin conjugate))
AUGUUCACUUGAUUAAUGGCGAAUAU [hsa-mir-1185-2_1185-1] | 0.337 | -0.39 | -0.629 | -0.673 | -0.89
AUGUUCGCUUCAUUCAUCAUGAAUAA [hsa-mir-655] | -0.248 | 0.089 | 0.297 | -0.299 | 0.385
AUGUUUAUUGUAAAGAUACUUU [hsa-mir-1305] | -0.249 | -0.418 | -0.643 | -0.121 | -0.517
AUUACUUGUGUUCUAUAUAAAGUAUU [hsa-mir-92a-2] | -0.855 | -0.0463 | -0.393 | -0.831 | -0.716
AUUAGACAGAAAAAAGUUAGACACAAAAAAUUGUGUCUAAU [hsa-mir-4759] | -0.0386 | 0.561 | 0.284 | -0.525 | 0.136
AUUAUGUUUUGGACAUAGAAACAUAAC [hsa-mir-5688] | -0.841 | -0.377 | -0.878 | -0.665 | -0.981
AUUCAGACUCAGGU [hsa-mir-921] | -0.651 | -0.0856 | -0.232 | -0.0427 | -0.204
AUUCUGAUGAUCACCUAGCCAGAAU [hsa-mir-5583-2] | -0.301 | 0.566 | 1.52 | 0.317 | 1.45
AUUCUGGACACCAG [hsa-mir-147b] | -0.497 | 0.387 | 0.0367 | 0.326 | 0.311
AUUCUGGAGUCCAUCUAGAG [hsa-mir-1182] | -1.08 | -0.378 | -0.538 | -0.297 | -0.598
AUUCUGGCUAGGUGAUCAUCAGAAU [hsa-mir-5583-1] | 0.902 | -0.406 | -0.794 | -0.726 | -1.07
AUUGAGAGUUCCUUCUCCUGCUCCUGAU [hsa-mir-6766] | -0.32 | -0.369 | -0.548 | -0.0576 | -0.462
AUUGAGUUACCUUUCUGACUUUCCCACU [hsa-mir-28] | -0.594 | 0.0519 | 0.108 | -0.279 | -0.0391
AUUGCACGUGUGUGAGGCGGGUGCAGU [hsa-mir-33b] | 0.513 | 0.102 | 0.626 | 0.592 | 0.7
AUUGCAUGUUCUGGUGGUACCCAUGCAAU [hsa-mir-33a] | -0.215 | 0.0325 | 0.18 | 0.382 | 0.127
AUUGCUGGACGCUGCCCUGGGCAU [hsa-mir-25] | -0.192 | 0.488 | 0.362 | 1.4 | 1.12
AUUGGAUGGAGUCAGGUCUCUAAU [hsa-mir-200b] | 0.359 | 0.101 | -0.126 | 0.568 | 0.26
AUUGGCUUGGAUUCUGCAAAGCCU [hsa-mir-7151] | 0.697 | 0.281 | -0.259 | 1.03 | 0.194
AUUGUACUGUGGUGGUUACAAU [hsa-mir-34b] | 0.118 | -0.429 | -0.851 | -1.19 | -0.984
AUUGUUGCCUCUGCAUGUUACAAU [hsa-mir-8066] | 0.523 | -0.512 | -0.204 | -0.665 | -0.485
AUUGUUGUGGGGUAGGGAUAUUAGGCCCCAAUUAGAAGAUAACUAU [hsa-mir-98] | 1.37 | 1.1 | 1.03 | 0.971 | 1.07
AUUUAUGUGAACUAAAAUAUAAAU [hsa-mir-513b] | -0.828 | 0.14 | 1.21 | -0.599 | 1.03
AUUUCCCAAAGUUGGGAAAA [hsa-mir-320b-2] | -1.23 | -0.231 | 0.0303 | -1.08 | -0.432
AUUUCUGUAGCUCUGAGACUAGACCU [hsa-mir-544b] | -0.0868 | -0.376 | -0.442 | 0.409 | -0.0563
AUUUCUGUGUUCGUUAGGCAACAG [hsa-mir-221] | 0.12 | 0.283 | 0.785 | 0.324 | 1.07

Sequence | pull-down binding Z-score [1] | pull-down binding Z-score [2] | pull-down binding Z-score [3] | pull-down binding Z-score [4] | pull-down binding Z-score (TO-N3 (biotin conjugate))
AUUUGCCAUCACCUUUACCUUUAAUGGCAAAA [hsa-mir-548av] | -0.985 | -0.205 | 0.0312 | -0.906 | -0.188
AUUUUCACUUAAU [hsa-mir-302f] | 0.103 | -0.267 | -0.0598 | -1.17 | -0.27
CAAAACUCCGUACAUUGCUAUUUUGC [hsa-mir-3064] | -0.316 | 0.0575 | -0.563 | -0.105 | -0.39
CAAACCGGACCUGAGCGUUUUG [hsa-mir-375] | -0.122 | 0.514 | 1.14 | 0.74 | 1.08
CAAAGACCAGAACUUAAUGGUCUCUG [hsa-mir-4490] | 0.704 | -0.671 | -0.471 | -1.15 | -0.888
CAAAUCGACUGUCCAAUGGAUUUG [hsa-mir-133a-2] | 2.07 | -0.146 | -0.529 | -0.536 | -0.674
CAAAUCGCCUCUUCAAUGGAUUUG [hsa-mir-133a-1] | 1.23 | -0.209 | 0.308 | -0.613 | 0.0594
CAACAGUUCUGUAGCGCAAUUGUG [hsa-mir-203a] | 0.267 | 0.0351 | 0.0356 | 1.07 | 0.622
CAACUACUCAGGAGGCUG [hsa-mir-566] | -0.123 | -0.179 | -0.196 | 0.304 | 0.0834
CAAGAGGUGUGAGCCACACACACGCCUGGCCUCCUG [hsa-mir-5699] | 1.28 | 0.0475 | 0.771 | 0.687 | 0.813
CAAGCACACAGGGCCUGGGACUAGCAUG [hsa-mir-4728] | -0.152 | 0.256 | 0.506 | 1.52 | 0.993
CAAGGAAGAGUCACAGUCUCUUCCUUG [hsa-mir-659] | -0.00418 | -0.285 | -0.474 | -0.539 | -0.699
CAAGGGCUCUACUGUCCUUUCAGGAGAGCCCUUG [hsa-mir-4776-2] | 1.19 | -1.02 | -0.245 | -1.37 | -0.597
CAAGGGCUCUCCUGAAAGGACAGUAGAGCCCUUG [hsa-mir-4776-1] | 0.88 | -0.0552 | 1.31 | -0.109 | 1.18
CAAGUAAAAGGAAUUUUCAUUUUCCAGCCCCUAAUUG [hsa-mir-6739] | -1.23 | -0.399 | -0.655 | -0.628 | -0.811
CAAGUCCGUCUUCCUGAGAGGUUUG [hsa-mir-133b] | -0.401 | -0.284 | -0.412 | 0.836 | -0.0806
CAAGUUAUCACUGAGCGACUUC [hsa-mir-4664] | -1.2 | -0.235 | -0.47 | -0.296 | -0.349
CAAUAGUAAAAAGACAACCUGUUG [hsa-mir-3133] | 0.427 | 0.0706 | -0.559 | -0.486 | -0.651
CAAUCACAUGUAAUUAGGUGUGAUUG [hsa-mir-510] | 1.4 | -0.773 | -0.789 | -1.29 | -1.09
CAAUCAUGUAUAACUAAAUUUGAUUG [hsa-mir-514a-2_514a-3] | 0.276 | -0.513 | -1.04 | -1.74 | -1.55
CAAUCAUGUAUAAUUAAAUUUGAUUG [hsa-mir-514a-1] | 0.528 | 0.0139 | -0.112 | -1.18 | -0.511
CAAUCAUGUGUAAUUAGAUAUGAUUG [hsa-mir-514b] | 0.559 | -0.732 | -1.06 | -1.33 | -1.38
CAAUGAAGACAUGAAGACCCAAUGUCUUCAUUG [hsa-mir-4529] | -0.114 | -0.347 | -0.88 | -1.1 | -1.17
CAAUUUGAGACCAAU [hsa-mir-1285-2] | -1.39 | 0.444 | -0.0235 | 0.218 | -0.0272
